In the supplement of paper PMC5998384:

Legend:
HeLa Kyoto [1] = assay: melting temperature (median over replicates), in situ; higher = more thermally stable
HeLa Kyoto [2] = assay: solubility change mitosis vs G1/S (difference of NP-40 vs SDS log2 ratios) (log2 ratio difference); higher = more soluble in mitosis
HeLa Kyoto [3] = assay: solubility in G1/S (NP-40 vs SDS abundance) (log2 ratio); higher = more soluble; conditions: cell cycle stage: G1/S
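Throughout, for melting temperature (median over replicates), in situ: HeLa Kyoto cells synchronized by double thymidine or nocodazole block, proteins quantified by TMT10plex mass spectrometry, three independent biological replicates.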
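Throughout, for solubility change mitosis vs G1/S (difference of NP-40 vs SDS log2 ratios): synchronized HeLa Kyoto cells (double thymidine block for G1/S, nocodazole release for mitosis), protein amounts in NP-40 versus SDS lysates quantified by mass spectrometry, three biological replicates.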
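Throughout, for solubility in G1/S (NP-40 vs SDS abundance): HeLa Kyoto cells arrested at G1/S by double thymidine block, proteins quantified by TMT10plex mass spectrometry in mild NP-40 versus SDS extracts, three biological replicates.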

Row | Substance | melting temperature (HeLa Kyoto [1]; cell cycle stage: G1/S) | melting temperature (HeLa Kyoto [1]; cell cycle stage: mitosis) | solubility change mitosis (log2) (HeLa Kyoto [2]) | solubility in G1/S (log2) (HeLa Kyoto [3])
1 | MSGIKRTIKETDPDYEDVSVALPNKRHKAIENSARDAAVQKIETIIKEQFALEMKNKEHEIEVIDQRLIEARRMMDKLRACIVANYYASAGLLKVSEGSKTCDTMVFNHPAIKKFLESPSRSSSPANQRAETPSANHSESDSLSQHNDFLSDKDNNSNMDIEERLSNNMEQRPSRNTGRDTSRITGSHKTEQRNADLTDETSRLFVKKTIVVGNVSKYIPPDKREENDQSTHKWMVYVRGSRREPSINHFVKKVWFFLHPSYKPNDLVEVREPPFHLTRRGWGEFPVRVQVHFKDSQNKRIDIIHNLKLDRTYTGLQTLGAETVVDVELHRHSLGEDCIYPQSSESDISDAPPSLPLTIPAPVKASSPIKQSHEPVPDTSVEKGFPASTEAERHTPFYALPSSLERTPTKMTTSQKVTFCSHGNSAFQPIASSCKIVPQSQVPNPESPGKSFQPITMSCKIVSGSPISTPSPSPLPRTPTSTPVHVKQGTAGSVINNPYVIMDKQPGQVIGATTPSTGSPTNKISTASQVSQGTGSPVPKIHGSSFVTSTVKQEDSLFASMPPLCPIGSHPKVQSPKPITGGLGAFTKVIIKQEPGEAPHVPATGAASQSPLPQYVTVKGGHMIAVSPQKQVITPGEGIAQSAKVQPSKVVGVPVGSALPSTVKQAVAISGGQILVAKASSSVSKAVGPKQVVTQGVAKAIVSGGGGTIVAQPVQTLTKAQVTAAGPQKSGSQGSVMATLQLPATNLANLANLPPGTKLYLTTNSKNPSGKGKLLLIPQGAILRATNNANLQSGSAASGGSGAGGGGGGGGGGGSGSGGGGSTGGGGGTAGGGTQSTAGPGGISQHLTYTSYILKQTPQGTFLVGQPSPQTSGKQLTTGSVVQGTLGVSTSSAQGQQTLKVISGQKTTLFTQAAHGGQASLMKISDSTLKTVPATSQLSKPGTTMLRVAGGVITTATSPAVALSANGPAQQSEGMAPVSSSTVSSVTKTSGQQQVCVSQATVGTCKAATPTVVSATSLVPTPNPISGKATVSGLLKIHSSQSSPQQAVLTIPSQLKPLSVNTSGGVQTILMPVNKVVQSFSTSKPPAILPVAAPTPVVPSSAPAAVAKVKTEPETPGPSCLSQEGQTAVKTEESSELGNYVIKIDHLETIQQLLTAVVKKIPLITAKSEDASCFSAKSVEQYYGWNIGKRRAAEWQRAMTMRKVLQEILEKNPRFHHLTPLKTKHIAHWCRCHGYTPPDPESLRNDGDSIEDVLTQIDSEPECPSSFSSADNLCRKLEDLQQFQKREPENEEEVDILSLSEPVKINIKKEQEEKQEEVKFYLPPTPGSEFIGDVTQKIGITLQPVALHRNVYASVVEDMILKATEQLVNDILRQALAVGYQTASHNRIPKEITVSNIHQAICNIPFLDFLTNKHMGILNEDQ [YEATS2] | 51.4 °C | 49.7 °C | 0.161 | -0.495
2 | MSGSLGRAAAALLRWGRGAGGGGLWGPGVRAAGSGAGGGGSAEQLDALVKKDKVVVFLKGTPEQPQCGFSNAVVQILRLHGVRDYAAYNVLDDPELRQGIKDYSNWPTIPQVYLNGEFVGGCDILLQMHQNGDLVEELKKLGIHSALLDEKKDQDSK [GLRX5] | 53.9 °C | 53 °C | -0.0285 | -0.00395
3 | MSRLIVKNLPNGMKEERFRQLFAAFGTLTDCSLKFTKDGKFRKFGFIGFKSEEEAQKAQKHFNKSFIDTSRITVEFCKSFGDPAKPRAWSKHAQKPSQPKQPPKDSTTPEIKKDEKKKKVAGQLEKLKEDTEFQEFLSVHQRRAQAATWANDGLDAEPSKGKSKPASDYLNFDSDSGQESEEEGAGEDLEEEASLEPKAAVQKELSDMDYLKSKMVKAGSSSSSEEEESEDEAVHCDEGSEAEEEDSSATPVLQERDSKGAGQEQGMPAGKKRPPEARAETEKPANQKEPTTCHTVKLRGAPFNVTEKNVMEFLAPLKPVAIRIVRNAHGNKTGYIFVDFSNEEEVKQALKCNREYMGGRYIEVFREKNVPTTKGAPKNTTKSWQGRILGENEEEEDLAESGRLFVRNLPYTSTEEDLEKLFSKYGPLSELHYPIDSLTKKPKGFAFITFMFPEHAVKAYSEVDGQVFQGRMLHVLPSTIKKEASEDASALGSSSYKKKKEAQDKANSASSHNWNTLFMGPNAVADAIAQKYNATKSQVFDHETKGSVAVRVALGETQLVQEVRRFLIDNGVSLDSFSQAAAERSKTVILVKNLPAGTLAAQLQETFGHFGSLGRVLLPEGGITAIVEFLEPLEARKAFRHLAYSKFHHVPLYLEWAPVGVFSSTAPQKKKLQDTPSEPMEKDPAEPETVPDGETPEDENPTEEGADNSSAKMEEEEEEEEEEEESLPGCTLFIKNLNFDTTEEKLKEVFSKVGTVKSCSISKKKNKAGVLLSMGFGFVEYRKPEQAQKALKQLQGHVVDGHKLEVRISERATKPAVTLARKKQVPRKQTTSKILVRNIPFQAHSREIRELFSTFGELKTVRLPKKMTGTGTHRGFGFVDFLTKQDAKRAFNALCHSTHLYGRRLVLEWADSEVTLQALRRKTAAHFHEPPKKKRSVVLDEILEQLEGSDSDSEEQTLQL [RBM19] | 48.5 °C | 51.2 °C | 0.706 | -1.27
4 | MSRQTTSVGSSCLDLWREKNDRLVRQAKVAQNSGLTLRRQQLAQDALEGLRGLLHSLQGLPAAVPVLPLELTVTCNFIILRASLAQGFTEDQAQDIQRSLERVLETQEQQGPRLEQGLRELWDSVLRASCLLPELLSALHRLVGLQAALWLSADRLGDLALLLETLNGSQSGASKDLLLLLKTWSPPAEELDAPLTLQDAQGLKDVLLTAFAYRQGLQELITGNPDKALSSLHEAASGLCPRPVLVQVYTALGSCHRKMGNPQRALLYLVAALKEGSAWGPPLLEASRLYQQLGDTTAELESLELLVEALNVPCSSKAPQFLIEVELLLPPPDLASPLHCGTQSQTKHILASRCLQTGRAGDAAEHYLDLLALLLDSSEPRFSPPPSPPGPCMPEVFLEAAVALIQAGRAQDALTLCEELLSRTSSLLPKMSRLWEDARKGTKELPYCPLWVSATHLLQGQAWVQLGAQKVAISEFSRCLELLFRATPEEKEQGAAFNCEQGCKSDAALQQLRAAALISRGLEWVASGQDTKALQDFLLSVQMCPGNRDTYFHLLQTLKRLDRRDEATALWWRLEAQTKGSHEDALWSLPLYLESYLSWIRPSDRDAFLEEFRTSLPKSCDL [FANCG] | 49.9 °C | 48 °C | -0.0579 | 0.138
5 | MSVAGGEIRGDTGGEDTAAPGRFSFSPEPTLEDIRRLHAEFAAERDWEQFHQPRNLLLALVGEVGELAELFQWKTDGEPGPQGWSPRERAALQEELSDVLIYLVALAARCRVDLPLAVLSKMDINRRRYPAHLARSSSRKYTELPHGAISEDQAVGPADIPCDSTGQTST [DCTPP1] | 54.1 °C | 50.5 °C | 0.646 | -0.0125
6 | MSYYLSSENHLDPGPIYMRENGQLHMVNLALDGVRSSLQKPRPFRLFPKGFSVELCMNREDDTARKEKTDHFIFTYTREGNLRYSAKSLFSLVLGFISDNVDHIDSLIGFPEQIAEKLFSAAEARQKFTEPGAGLRALQKFTEAYGSLVLCSLCLRNRYLVISEKLEEIKSFRELTCLDLSCCKLGDEHELLEHLTNEALSSVTQLHLKDNCLSDAGVRKMTAPVRVMKRGLENLTLLDLSCNPEITDAGIGYLFSFRKLNCLDISGTGLKDIKTVKHKLQTHIGLVHSKVPLKEFDHSNCKTEGWADQIVLQWERVTAEAVKPRETSEPRAAAQRFYGKRSRAEAPLKCPLADTHMNSSEKLQFYKEKAPDCHGPVLKHEAISSQESKKSKKRPFEESETEQNNSSQPSKQKYVCLAVEDWDLLNSY [LRRC42] | 49 °C | 50.9 °C | -0.111 | -0.0147
7 | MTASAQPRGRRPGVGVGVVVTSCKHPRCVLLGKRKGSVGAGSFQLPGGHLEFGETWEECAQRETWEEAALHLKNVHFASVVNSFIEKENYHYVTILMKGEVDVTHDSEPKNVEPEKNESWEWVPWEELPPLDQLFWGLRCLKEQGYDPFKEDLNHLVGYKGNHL [NUDT15] | 53.4 °C | 52.3 °C | -0.3 | 0.425
8 | MTGKKSSREKRRKRSSQEAAAALAAPDIVPALASGSSGSTSGCGSAGGCGSVSCCGNANFSGSVTGGGSGGSCWGGSSVERSERRKRRSTDSSSVSGSLQQETKYILPTLEKELFLAEHSDLEEGGLDLTVSLKPVSFYISDKKEMLQQCFCIIGEKKLQKMLPDVLKNCSIEEIKKLCQEQLELLSEKKILKILEGDNGMDSDMEEEADDGSKMGSDLVSQQDICIDSASSVRENKQPEGLELKQGKGEDSDVLSINADAYDSDIEGPCNEEAAAPEAPENTVQSEAGQIDDLEKDIEKSVNEILGLAESSPNEPKAATLAVPPPEDVQPSAQQLELLELEMRARAIKALMKAGDIKKPA [CAAP1] | 47.3 °C | 51.8 °C | 0.56 | -0.326
9 | MTKIKADPDGPEAQAEACSGERTYQELLVNQNPIAQPLASRRLTRKLYKCIKKAVKQKQIRRGVKEVQKFVNKGEKGIMVLAGDTLPIEVYCHLPVMCEDRNLPYVYIPSKTDLGAAAGSKRPTCVIMVKPHEEYQEAYDECLEEVQSLPLPL [NHP2] | 55.3 °C | 54.1 °C | 1.21 | -1.1
10 | MTTSQKHRDFVAEPMGEKPVGSLAGIGEVLGKKLEERGFDKAYVVLGQFLVLKKDEDLFREWLKDTCGANAKQSRDCFGCLREWCDAFL [BANF1] | – | 52.2 °C | 1.93 | -1.48
11 | MTTTTTFKGVDPNSRNSSRVLRPPGGGSNFSLGFDEPTEQPVRKNKMASNIFGTPEENQASWAKSAGAKSSGGREDLESSGLQRRNSSEASSGDFLDLKGEGDIHENVDTDLPGSLGQSEEKPVPAAPVPSPVAPAPVPSRRNPPGGKSSLVLG [HN1] | 52.1 °C | – | 0.268 | -0.248
12 | MVGPAPRRRLRPLAALALVLALAPGLPTARAGQTPRPAERGPPVRLFTEEELARYGGEEEDQPIYLAVKGVVFDVTSGKEFYGRGAPYNALTGKDSTRGVAKMSLDPADLTHDTTGLTAKELEALDEVFTKVYKAKYPIVGYTARRILNEDGSPNLDFKPEDQPHFDIKDEF [NENF] | 55.3 °C | 52.4 °C | -0.0192 | 0.423
13 | MYLSICCCFLLWAPALTLKNLNYSVPEEQGAGTVIGNIGRDARLQPGLPPAERGGGGRSKSGSYRVLENSAPHLLDVDADSGLLYTKQRIDRESLCRHNAKCQLSLEVFANDKEICMIKVEIQDINDNAPSFSSDQIEMDISENAAPGTRFPLTSAHDPDAGENGLRTYLLTRDDHGLFGLDVKSRGDGTKFPELVIQKALDREQQNHHTLVLTALDGGEPPRSATVQINVKVIDSNDNSPVFEAPSYLVELPENAPLGTVVIDLNATDADEGPNGEVLYSFSSYVPDRVRELFSIDPKTGLIRVKGNLDYEENGMLEIDVQARDLGPNPIPAHCKVTVKLIDRNDNAPSIGFVSVRQGALSEAAPPGTVIALVRVTDRDSGKNGQLQCRVLGGGGTGGGGGLGGPGGSVPFKLEENYDNFYTVVTDRPLDRETQDEYNVTIVARDGGSPPLNSTKSFAIKILDENDNPPRFTKGLYVLQVHENNIPGEYLGSVLAQDPDLGQNGTVSYSILPSHIGDVSIYTYVSVNPTNGAIYALRSFNFEQTKAFEFKVLAKDSGAPAHLESNATVRVTVLDVNDNAPVIVLPTLQNDTAELQVPRNAGLGYLVSTVRALDSDFGESGRLTYEIVDGNDDHLFEIDPSSGEIRTLHPFWEDVTPVVELVVKVTDHGKPTLSAVAKLIIRSVSGSLPEGVPRVNGEQHHWDMSLPLIVTLSTISIILLAAMITIAVKCKRENKEIRTYNCRIAEYSHPQLGGGKGKKKKINKNDIMLVQSEVEERNAMNVMNVVSSPSLATSPMYFDYQTRLPLSSPRSEVMYLKPASNNLTVPQGHAGCHTSFTGQGTNASETPATRMSIIQTDNFPAEPNYMGSRQQFVQSSSTFKDPERASLRDSGHGDSDQADSDQDTNKGSCCDMSVREALKMKTTSTKSQPLEQEPEECVNCTDECRVLGHSDRCWMPQFPAANQAENADYRTNLFVPTVEANVETETYETVNPTGKKTFCTFGKDKREHTILIANVKPYLKAKRALSPLLQEVPSASSSPTKACIEPCTSTKGSLDGCEAKPGALAEASSQYLPTDSQYLSPSKQPRDPPFMASDQMARVFADVHSRASRDSSEMGAVLEQLDHPNRDLGRESVDAEEVVREIDKLLQDCRGNDPVAVRK [PCDH17] | 53.8 °C | 53.4 °C | -0.0215 | 0.25
14 | PHLPP1 | 51.7 °C | 51.2 °C | -0.0508 | 0.00518
